Reference: patent US20190241669A1 (published 2019)
Residue numbers refer to the chain shown, from its start.

B1: COMBO_Rd4_0.6nM_C21 (antibody, V domains shown)
VH: EVQLLESGGGLVQPGGSLRLSCAASGFTFSSYPMSWVRQAPGKGLEWVSAIGGSGGSLPYADSVKGRFTISRDNSKNTLYLQMNSLRAEDTAVYYCARYWPMDSWGQGTLVTVSS
VL: EIVLTQSPGTLSLSPGERATLSCRASQSVSSSYLAWYQQKPGQAPRLLMYDASIRATGIPDRFSGSGSGTDFTLTISRLEPEDFAVYYCQQYQSWPLTFGQGTKVEIK
notes: IgG
B2: A02_Rd4_6nM_C05 (antibody, V domains shown)
VH: B1 VH with P33A, S35N, G52F, G53A, L58T, P59Y, D103T, S104P
VL: B1 VL with S94R
notes: IgG
B3: C01_Rd4_0.6nM_C06 (antibody, V domains shown)
VH: B1 VH
VL: B1 VL with Q27E, S28A, S30P, S32T, M49I, I54S, T57P, Q93S, S94A, W95F
notes: IgG
B4: C01_Rd4_0.6nM_C16 (antibody, V domains shown)
VH: B1 VH
VL: B1 VL with S32T, M49I, I54S, T57P, Q93S
notes: IgG
B5: C01_Rd4_6nM_C24 (antibody, V domains shown)
VH: B1 VH
VL: B1 VL with S31P, S32E, M49I, I54S, T57P, Q93S, S94V
notes: IgG
B6: C01_Rd4_6nM_C20 (antibody, V domains shown)
VH: B1 VH
VL: B1 VL with S31P, S32L, M49I, I54S, T57P, Q93S, S94A, W95F
notes: IgG
B7: A02_Rd4_0.6nM_C09 (antibody, V domains shown)
VH: B1 VH with P33A, S35N, G52S, G53D, L58M, P59W, D103S, S104L
VL: B1 VL
notes: IgG
B8: A02_Rd4_6nM_C10 (antibody, V domains shown)
VH: B1 VH with P33A, S35N, G52S, G53D, L58C, P59W, D103T, S104P
VL: B1 VL with S30E, S31M, Q93A, S94H
notes: IgG
B9: C01_Rd4_6nM_C10 (antibody, V domains shown)
VH: B1 VH
VL: B1 VL with S32V, M49I, I54S, T57P, Q93S, S94T
notes: IgG
B10: A02_Rd4_6nM_C22 (antibody, V domains shown)
VH: B1 VH with P33A, S35N, I51V, G52L, G53D, L58T, P59Y, D103T, S104P
VL: B1 VL with S94V
notes: IgG
B11: A02_Rd4_0.6nM_C26 (antibody, V domains shown)
VH: B1 VH with P33A, S35N, G52L, G53M, L58T, P59Y, D103S, S104L
VL: B1 VL with R24G, A25P
notes: IgG
B12: C01_Rd4_0.6nM_C09 (antibody, V domains shown)
VH: B1 VH
VL: B1 VL with S32L, Y33F, M49I, I54S, T57P, Q93S, S94A
notes: IgG
B13: A02_Rd4_0.6nM_C13 (antibody, V domains shown)
VH: B1 VH with P33A, S35N, G52S, G53D, S57Y, L58R, P59Y, D103S, S104L
VL: B1 VL with L34W, Q93E
notes: IgG
B14: C01_Rd4_0.6nM_C03 (antibody, V domains shown)
VH: B1 VH
VL: B1 VL with Q27C, S28D, S32T, M49I, I54S, T57P, Q93M, S94R, W95S
notes: IgG
B15: A02_Rd4_0.6nM_C10 (antibody, V domains shown)
VH: B1 VH with P33A, S35N, G52S, S54W
VL: B1 VL with S31A, S32Q, S94R
notes: IgG
B16: A02_Rd4_6nM_C19 (antibody, V domains shown)
VH: B1 VH with P33A, S35N, G52S, G53D, L58R, P59W, D103S, S104D
VL: B1 VL with S31V, S32L, Q93L, S94A
notes: IgG
B17: A02_Rd4_6nM_C23 (antibody, V domains shown)
VH: B1 VH with P33A, S35N, G52S, G53D, L58G, P59W, D103S, S104L
VL: B1 VL with S31V, S32E, Q93A, S94R
notes: IgG
B18: A02_Rd4_6nM_C26 (antibody, V domains shown)
VH: B1 VH with P33A, S35N, G52S, G53D, L58T, P59Y, D103S, S104L
VL: B1 VL with S32L, S94V
notes: IgG
B19: A02_Rd4_6nM_C08 (antibody, V domains shown)
VH: B1 VH with P33A, S35N, G52L, G53D, L58T, P59Y, D103S, S104P
VL: B1 VL with S31F, S32L, Q93G
notes: IgG
B20: A02_Rd4_6nM_C04 (antibody, V domains shown)
VH: B1 VH with P33A, S35N, G52M, G53S, S57P, P59Y, D103A, S104L
VL: B1 VL with S31A, S32L, S94V
notes: IgG
B21: C01_Rd4_6nM_C09 (antibody, V domains shown)
VH: B1 VH with I51T, G52V, L58I, P59G
VL: B1 VL with R24A, A25C, S32T, M49I, I54S, T57P, Q93S, S94A
notes: IgG
B22: A02_Rd4_0.6nM_C01 (antibody, V domains shown)
VH: B1 VH with P33A, S35N, G52L, G53S, L58T, P59Y, S104I
VL: B1 VL with A25G, S26G
notes: IgG; also called P5AC1
B23: A02_Rd4_6nM_C03 (antibody, V domains shown)
VH: B1 VH with P33A, S35N, G52S, G53D, L58T, P59Y, S104I
VL: B1 VL with S31N, S32L, S94G
notes: IgG
B24: A02_Rd4_0.6nM_C03 (antibody, V domains shown)
VH: B1 VH with P33A, S35N, G52S, G53D, L58K, P59W, D103S, S104L
VL: B1 VL with Q93F, S94T
notes: IgG
B25: A02_Rd4_6nM_C07 (antibody, V domains shown)
VH: B1 VH with P33A, S35N
VL: B1 VL with S31P, S32Y, Q93E, S94R
notes: IgG
B26: C01_Rd4_6nM_C04 (antibody, V domains shown)
VH: B1 VH
VL: B1 VL with R24C, A25S, S32T, M49I, I54S, T57P, Q93S, S94A, W95F
notes: IgG
B27: A02_Rd4_6nM_C25 (antibody, V domains shown)
VH: B1 VH with P33A, S35N, G52S, G53D, L58R, P59W, D103T, S104P
VL: B1 VL with Q93L, S94D
notes: IgG
B28: C01_Rd4_0.6nM_C27 (antibody, V domains shown)
VH: B1 VH
VL: B1 VL with S32T, M49I, I54S, T57P, Q93S, S94R
notes: IgG
B29: A02_Rd4_0.6nM_C06 (antibody, V domains shown)
VH: B1 VH with P33A, S35N, G52S, G53D, L58A, P59W, D103S, S104L
VL: B1 VL with S31V, S32L, S94R
notes: IgG
B30: C01_Rd4_6nM_C12 (antibody, V domains shown)
VH: B1 VH with S57W, L58S, P59Y
VL: B1 VL with R24W, A25L, S32T, M49I, I54S, T57P, Q93S, S94E
notes: IgG; also called PC1C12

Key:
cynomolgus monkey BCMA = biological target: T1, cynomolgus monkey BCMA (cynomolgus monkey, UniProt A0A2K5UD97 1-53); test: SPR, IgG on chip, cyBCMA analyte
T1 construct: Soluble analyte in SPR; construct not described; also called cyBCMA; Cyno BCMA

Human BCMA (human) = Human BCMA (human) (UniProt Q02223); test: SPR, IgG on chip, huBCMA analyte

T1 sequence (A0A2K5UD97 entry or part of it): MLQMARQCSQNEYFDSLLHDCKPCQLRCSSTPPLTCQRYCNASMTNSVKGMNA

Row | Binder | Kd (cynomolgus monkey BCMA) [nM] | koff (cynomolgus monkey BCMA) [s⁻¹] | kon (cynomolgus monkey BCMA) [M⁻¹ s⁻¹] | Kd (Human BCMA (human)) [nM] | koff (Human BCMA (human)) [s⁻¹] | kon (Human BCMA (human)) [M⁻¹ s⁻¹]
1 | B1 | 0.084 | 0.000304 | 3.63e+06 | 0.009 | 0.000115 | 1.34e+07
2 | B2 | 0.95 | 0.00129 | 1.36e+06 | 0.099 | 0.000308 | 3.1e+06
3 | B3 | 1.95 | 0.0121 | 6.22e+06 | 0.847 | 0.0154 | 1.82e+07
4 | B4 | 0.939 | 0.00464 | 4.95e+06 | 0.407 | 0.0063 | 1.55e+07
5 | B5 | 0.281 | 0.000891 | 3.17e+06 | 0.467 | 0.00348 | 7.47e+06
6 | B6 | 1.74 | 0.00625 | 3.6e+06 | 0.459 | 0.00276 | 6.02e+06
7 | B7 | 0.082 | 0.000174 | 2.13e+06 | 0.018 | 9.75e-05 | 5.5e+06
8 | B8 | 0.472 | 0.000898 | 1.9e+06 | 0.07 | 0.000315 | 4.51e+06
9 | B9 | 0.493 | 0.00219 | 4.44e+06 | 0.162 | 0.00212 | 1.31e+07
10 | B10 | 0.176 | 0.000324 | 1.84e+06 | 0.054 | 0.000182 | 3.38e+06
11 | B11 | 0.941 | 0.00256 | 2.71e+06 | 0.061 | 0.000443 | 7.26e+06
12 | B12 | 1.77 | 0.00936 | 5.28e+06 | 0.545 | 0.00825 | 1.51e+07
13 | B13 | 0.56 | 0.00128 | 2.29e+06 | 0.066 | 0.000566 | 8.53e+06
14 | B14 | 2.53 | 0.0119 | 4.72e+06 | 0.964 | 0.015 | 1.55e+07
15 | B15 | 1.84 | 0.00163 | 883000 | 0.129 | 0.000296 | 2.3e+06
16 | B16 | 0.26 | 0.000661 | 2.54e+06 | 0.049 | 0.000148 | 3e+06
17 | B17 | 0.157 | 0.000414 | 2.63e+06 | 0.021 | 0.000255 | 1.22e+07
18 | B18 | 0.203 | 0.000448 | 2.21e+06 | 0.033 | 0.000139 | 4.26e+06
19 | B19 | 5.07 | 0.0113 | 2.23e+06 | 0.188 | 0.000738 | 3.92e+06
20 | B20 | 0.381 | 0.000831 | 2.18e+06 | 0.135 | 0.000603 | 4.47e+06
21 | B21 | 2.33 | 0.00868 | 3.73e+06 | 0.811 | 0.0128 | 1.58e+07
22 | B22 | 0.655 | 0.00157 | 2.39e+06 | 0.193 | 0.000915 | 4.74e+06
23 | B23 | 0.158 | 0.000185 | 1.17e+06 | 0.075 | 0.000126 | 1.69e+06
24 | B24 | 0.201 | 0.000426 | 2.12e+06 | 0.043 | 0.000182 | 4.27e+06
25 | B25 | 1.14 | 0.000786 | 691000 | 0.128 | 0.000189 | 1.48e+06
26 | B26 | 5.16 | 0.0327 | 6.34e+06 | 2.13 | 0.0497 | 2.33e+07
27 | B27 | 0.22 | 0.00033 | 1.5e+06 | 0.065 | 0.00018 | 2.75e+06
28 | B28 | 0.852 | 0.00285 | 3.34e+06 | 0.303 | 0.00374 | 1.23e+07
29 | B29 | 0.058 | 0.000105 | 1.81e+06 | 0.021 | 7.37e-05 | 3.49e+06
30 | B30 | 0.82 | 0.0037 | 4.51e+06 | 0.535 | 0.00649 | 1.21e+07
